In patent US6468532 (dated 2002):

Target: recombinant human IL-8, (ser-IL-8)72 (human, UniProt P10145 28-99)
Assay: competition radioimmunoassay (unlabeled IL-8/125I-IL-8)

IC50: 0.059 nM
B1: full length 6G4V11N35A IgG1 (antibody, V domains shown)
VH: EVQLVQSGGGLVQPGGSLRLSCAASGYSFSSHYMHWVRQAPGKGLEWVGYIDPSNGETTYNQKFKGRFTLSRDNSKNTAYLQMNSLRAEDTAVYYCARGDYRYNGDWFFDVWGQGTLVTVSS
VL: DIQMTQSPSSLSASVGDRVTITCRSSQSLVHGIGATYLHWYQQKPGKAPKLLIYKVSNRFSGVPSRFSGSGSGTDFTLTISSLQPEDFATYYCSQSTHVPLTFGQGTKVEIKR
